This is an account of results in patent US6365126.

The data set concerns the target H-Ras, P01112.

Sequence of H-Ras, P01112 (P01112 whole entry, looked up): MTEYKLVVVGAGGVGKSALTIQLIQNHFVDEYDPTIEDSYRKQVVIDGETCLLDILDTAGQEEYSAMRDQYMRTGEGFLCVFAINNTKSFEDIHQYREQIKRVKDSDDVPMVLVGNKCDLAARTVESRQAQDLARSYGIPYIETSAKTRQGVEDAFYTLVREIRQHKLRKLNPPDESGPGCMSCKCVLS

B1: human p120GAP catalytic domain fusion protein (protein)
chain: MEKIMPEEEYSEFKELILQKELHVVYALSHVCGQDRTLLASILLRIFLHEKLESLLLCTLNDREISMEDEATTLFRATTLASTLMEQYMKATATQFVHHALKDSILKIMESKQSCELSPSKLEKNEDVNTNLTHLLNILSELVEKIFMASEILPPTLRYIYGCLQKSVQHKWPTNTTMRTRVVSGFVFLRLICPAILNPRMFNIISDSPSPIAARTLILVAKSVQNLANLVEFGAKEPYMEGVNPFIKSNKHRMIMFLDELGNVPELPDTTEHSRTDLSRDLAALHEICVAHSDELRTLSNERGAQQHVLKKLLAITELLQQKQNQYTKTNDVR
On to B1, for which the “GTPase activity of H-Ras (GAP assay)” value was “All three fusion proteins stimulated the GTPase activity of H-Ras”.

B2: Drosophila NF1 catalytic domain (amino acids 1,235-1,614) bacterial fusion protein (protein)
chain: TEFDTLAETVLADRFEQLVQLVTMISDKGELPIAMALANVVTTSQMDELARVLVTLFDAKHLLSPLLWNMFYREVEVSDCMQTLFRGNSLGSKIMAFCFKIYGASYLQMLLEPLIRPLLDEEEETCFEVDPARLDPTEDIEQHRNNLIALTQKVFDAIINSSDRFPPQLRSMCHCLYQVLSKRFPNLLQNNIGAVGTVIFLRFINPAIVSPQELGIVDKQVHSSAKRGLMLMSKILQNIANHVEFSKEQHMLCFNDFLRDHFEAGRRFFIQIASDCETVDQTSHSMSFISDANVLALHRLLWTHQEKIGDYLSSSRDHKAVGRRPFDKMATLLAYLGPPEHKPVDSHMMFSSYARWSSIDMSSTNFEEIMVKHQMHEKEE
B2: the “GTPase activity of H-Ras (GAP assay)” value is reported as “All three fusion proteins stimulated the GTPase activity of H-Ras”.
